US20040216177A1, “Congenic rats containing a mutant GPR10 gene” (OTSUKA PHARMACEUTICAL CO., LTD., priority 2003, published 2004)
Each block holds one substance with its values, some of them ahead of it.

Experiments:
[1] = target: cloned human NH2-terminus truncated (mutant) GPR10 (306 amino acids) (human) (UniProt P49683); experiment: cell-based or functional assay
[2] = target: cloned human wild-type GPR10 (370 amino acids) (human) (UniProt P49683); experiment: cell-based or functional assay
[3] = target: cloned human wild-type GPR10 (370 amino acids) (human) (UniProt P49683); experiment: displacement of 0.05 nM [125I]PrRP from CHO-hGPR10 cell membranes, 2-site competition model, site 2
[4] = target: cloned human wild-type GPR10 (370 amino acids) (human) (UniProt P49683); experiment: displacement of 0.05 nM [125I]PrRP from CHO-hGPR10 cell membranes, 2-site competition model, site 1
[5] = target: cloned human wild-type GPR10 (370 amino acids) (human) (UniProt P49683); experiment: radioligand saturation binding on CHO-hGPR10 cell membranes, 2-site model, site 2
[6] = target: cloned human wild-type GPR10 (370 amino acids) (human) (UniProt P49683); experiment: radioligand saturation binding on CHO-hGPR10 cell membranes, at [125I]PrRP concentrations near the KD
[7] = target: cloned human wild-type GPR10 (370 amino acids) (human) (UniProt P49683); experiment: radioligand saturation binding on CHO-hGPR10 cell membranes, 2-site model, site 1
[8] = target: cloned human wild-type GPR10 (370 amino acids) (human) (UniProt P49683); experiment: saturation radioligand binding on CHO-hGPR10 cell membranes; non-specific binding determined with 1.0 uM unlabelled PrRP
[9] = target: T1, cloned human wild-type GPR10 (Homo sapiens, UniProt P49683); experiment: [125I]PrRP competition binding to CHO-hGPR10 cell membranes; settings: 2-site competition model, site 2, 0.05 nM [125I]PrRP
T1 construct: For cloning of human wild-type GPR10 ORF, a DNA fragment was amplified from human genomic DNA; expressed in transfected cells
T1 sequence (P49683 1-370): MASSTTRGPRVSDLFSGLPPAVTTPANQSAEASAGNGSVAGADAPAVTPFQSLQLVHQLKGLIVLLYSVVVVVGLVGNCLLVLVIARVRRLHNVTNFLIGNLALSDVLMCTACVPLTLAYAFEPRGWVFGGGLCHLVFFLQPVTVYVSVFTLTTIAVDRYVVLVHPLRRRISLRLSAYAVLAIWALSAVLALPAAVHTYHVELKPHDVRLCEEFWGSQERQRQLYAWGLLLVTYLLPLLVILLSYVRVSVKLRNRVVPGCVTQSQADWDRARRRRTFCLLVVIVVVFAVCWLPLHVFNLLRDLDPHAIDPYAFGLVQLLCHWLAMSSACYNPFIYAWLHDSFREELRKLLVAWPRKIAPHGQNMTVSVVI
Procedure: Next, PrRP and compound X (molecular weight=318.38) were studied in quadruplicate at nanomolar to micromolar concentrations (PrRP at 0.01, 0.1, 0.5, 1, 5, 10, 50 and 100 nM; Compound X at 100, 300, 1000, 3000 and 10,000 nM) to determine their respective displacement of [^125I]PrRP (Amersham Biosciences UK Limited; catalog #IM341, Specific Activity=2000 Ci/mmol) binding to CHO-hGPR10 cell membranes. Membranes (20 μg protein) were incubated with 0.05 nM [^125I]PrRP, Compound X or vehicle, and buffer comprising 20 mM Tris (pH 7.4), 2.0 mM EGTA, 5.0 mM C4H6MgO4, 0.5 mM phenylmethylsulfonyl fluoride, 1.0 μg/ml pepstatin, 1.0 μl/ml protease inhibitor cocktail, and 0.1% (w/v) BSA. All of the reactions were performed in 96-well Basic Flashplates®, terminated by centrifugation (3,000 g×7 min) after a 90 min incubation at room temperature, and radioactive counts associated with membrane-bound [^125I]PrRP were counted in each well using a Microbeta TriLux microscintillation counter. Non-linear regression analysis of the competition binding data was used to calculate inhibition binding constants (IC50 and Ki), which is the concentration of Compound X that occupies half of the CHO-hGPR10 receptors specifically bound by 0.05 nM [^125I]PrRP. […]

[10] = rats; cited from earlier work
[11] = target: T1, cloned human wild-type GPR10; experiment: [3H]arachidonic acid release from CHO-hGPR10 cells; assay type: cell-based
Procedure: CHO cells stably expressing cloned human wild-type GPR10 (CHO-hGPR10 cells) were generated as described in Examples 2-3. CHO-hGPR10 were cultured in F-12 HAM medium supplemented with 2.0 mM L-glutamine, 10% (v/v) dialyzed fetal bovine serum, 1.0% hypoxanthine-thymidine supplement, and 1.0% G-418 selection agent. All of the cells were maintained at 37° C. in an atmosphere of 5% CO2 and passaged when ˜80% confluent using a non-enzymatic cell dissociation buffer (Sigma-Aldrich Corporation). CHO-hGPR10 cells were harvested when ˜70% confluent for use in [^3H]arachidonic acid release assays, which were performed as follows:
CHO-hGPR10 cells were plated at a density of 150,000 cells/well in 12 well tissue culture plates, rinsed 24 hr later with calcium and magnesium free Hank's Balanced Salt Solution (Gibco-BRL), and left to incubate for 4 hr in F-12 culture medium (1.0 ml/well) containing 100 nCi/ml of [^3H]arachidonic acid. The cells were then rinsed and incubated for 5 min in 1.0 ml/well of Hank's Balanced Salt Solution (Invitrogen Corp. CA) containing 20 mM HEPES buffer (Sigma-Aldrich Corp.) and 0.1% (w/v) fatty acid-free bovine serum albumin (Sigma-Aldrich Corp.). After repeating this rinse and incubation procedure 3 times, 1.0 ml of vehicle, PrRP or Compound X was added to each well and plates were left to incubate for 30 min at 37° C. 400 μl of the extracellular liquid present in each well was mixed with 2.6 ml of liquid scintillation cocktail and counted by liquid scintillation counting (1272 Clinigamma, LKB/Wallach) to calculate the total [^3H] radioactivity present in each well. All of the reactions were performed in triplicate, at concentrations in the 0.01 to 10,000 nM range, to determine the effects of PrRP and Compound X on basal [^3H]arachidonic acid release from CHO-hGPR10 cells. […]

[12] = target: T2, cloned human NH2-terminus truncated GPR10 (Homo sapiens, UniProt P49683, L65M); experiment: [3H]arachidonic acid release from CHO-T-hGPR10 cells; assay type: cell-based
T2 construct: expressed in transfected cells
T2 sequence (P49683 65-370 L65M limits assumed): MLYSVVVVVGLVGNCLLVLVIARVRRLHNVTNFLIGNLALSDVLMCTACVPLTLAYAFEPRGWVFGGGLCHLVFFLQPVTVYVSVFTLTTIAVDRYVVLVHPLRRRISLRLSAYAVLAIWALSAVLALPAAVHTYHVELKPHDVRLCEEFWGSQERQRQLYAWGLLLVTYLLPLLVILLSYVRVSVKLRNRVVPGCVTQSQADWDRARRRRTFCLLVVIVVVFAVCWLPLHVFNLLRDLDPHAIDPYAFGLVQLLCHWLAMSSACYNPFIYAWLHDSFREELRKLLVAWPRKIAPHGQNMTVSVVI
Procedure: CHO cells were generated to stably express a cloned truncated form of the human GPR10, as described in Examples 2-3. These CHO-T-hGPR10 cells, which express a truncation of the first 64 amino acids present in the wild-type cloned human GPR10, were cultured in F-12 HAM medium, supplemented with 2.0 mM L-glutamine, 10% (v/v) dialyzed fetal bovine serum, 1.0% hypoxanthine-thymidine supplement and 1.0% G-418 selection agent. All of the cells were maintained at 37° C. in an atmosphere of 5% CO2 and passaged when ˜80% confluent using a non-enzymatic cell dissociation buffer (Sigma-Aldrich Corporation). CHO-T-hGPR10 cells were harvested when ˜70% confluent for use in [^3H]arachidonic acid release assays carried out as described below.
The effects of PrRP and Compound X on basal [^3H]arachidonic acid release from CHO-T-hGPR10 cells was performed using exactly the same assay procedure described in Example 7. PrRP and Compound X were each tested in triplicate at concentrations in the 0.01 to 10,000 nM range.
The mean radioactive counts (±SEM, N=3) detected in each reaction triplicate were calculated, and binding isotherms were analyzed by non-linear regression, using GraphPad Prism version 3.00 for Windows, to estimate the potency (EC50 with 95% confidence interval) and relative intrinsic activity (Emax as % basal release±SEM) of PrRP and Compound X. The results are shown in FIG. 19. […]

[^3H]arachidonic acid release from CHO-T-hGPR10 cells, Emax (as % basal release) [1]: 3.6% | [^3H]arachidonic acid release from CHO-hGPR10 cells, EC50 [2]: 0.043 nM | [^3H]arachidonic acid release from CHO-hGPR10 cells, Emax (as % 1.0 nM PrRP) [2]: 75.3% | [^3H]arachidonic acid release from CHO-hGPR10 cells, Emax (as a % of 1 nM PrRP) [2]: 105% | IC50 [3]: 0.5 nM | Ki [3]: 0.29 nM | IC50 [4]: 0.0007 nM | Ki [4]: 0.0004 nM
Substance: PrRP (prolactin-releasing peptide), unlabelled

Kd [5]: 0.072 nM | percent of total binding that was specific [6]: > 80% | Kd [7]: 0.07 nM | EC50 (read off the curve) [8]: 0.07 nM
Substance: [^125I]PrRP (radioiodinated prolactin-releasing peptide)

Ki [9]: 0.29 nM | IC50 ([9]; read-out: IC50 (2) displacement of [125I]PrRP): 0.5 nM | Emax, relative intrinsic activity ([11]; 1.0 μM PrRP alone (Example 9)): 75.3±6.1% | Emax, relative intrinsic activity ([11]; as % of 1 nM PrRP, tested alone): 105.4±6.1% | EC50 ([11]; tested alone): 0.043 nM | Emax, relative intrinsic activity ([12]; 1.0 nM PrRP alone, as % basal release): 3.6±4.4% | activity on basal [3H]arachidonic acid release ([12]; 0.01 to 10,000 nM): inactive
Substance: prolactin-releasing peptide [PrRP]
ACTH [10]: increase | body weight [10]: reduce | food intake [10]: reduce | plasma oxytocin [10]: increase | wakefulness [10]: promote wakefulness
